Source: patent US10689452 (UNIVERSIT T STUTTGART, dated 2020)

Key:
[1] = biological target: T1, human TNFR1-Fc fusion protein (human, UniProt P19438 29-211); assay: ELISA, human TNFR1-Fc
T1 construct: range 29-211; Made in stably transfected HEK293 cells; coated on ELISA plates or immobilised on QCM chips; also called huTNFR1-Fc; human TNFR-Fc; not shown: Fc part from vector pSecTagL1-Fc
T1 sequence (looked up): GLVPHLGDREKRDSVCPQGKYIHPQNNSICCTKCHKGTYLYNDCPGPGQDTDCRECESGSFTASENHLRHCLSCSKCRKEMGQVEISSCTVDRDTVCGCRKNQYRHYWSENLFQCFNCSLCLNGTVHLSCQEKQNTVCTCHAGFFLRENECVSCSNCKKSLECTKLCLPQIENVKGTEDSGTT

[2] = biological target: T1, human TNFR1-Fc fusion protein; assay: QCM, human TNFR1-Fc, moderate receptor density (86 Hz), biphasic fit, koff2 (high-affinity part)
Protocol: (§1) Real-time binding dynamics in protein-protein interactions were determined by quartz crystal microbalance measurements (A-100 C-Fast or Cell-200 C-Fast, Attana, Stockholm, Sweden). One of the binding partners (ligand, e.g. TNFR1-Fc) was chemically immobilized on a carboxyl sensor chip according to the manufacturer's protocol at different densities (nearly 200 Hz in the case of saturating conditions to confirm previously published results and 50-100 Hz, in particular at about 50 Hz, to establish conditions of lower receptor density, better resembling the situation on the cellular surface). Binding experiments were performed with samples (analyte) diluted in PBST (PBS, 0.1% Tween 20) at pH 7.4 with a flow rate of 25 µl/min at 37° C. The chip was regenerated with 25 µl 5 mM NaOH or 20 mM glycine, pH 2.0. Every third measurement, an injection of running buffer was measured which was subtracted from the binding curve. Data were collected using the software provided by Attana for the particular device and analyzed by Attaché Office Evaluation software (Attana, Stockholm, Sweden) and TraceDrawe (ridgview instruments, Vange, Sweden).

[3] = biological target: T2, mouse TNFR1-Fc fusion protein (mouse, UniProt P25118 30-212); assay: ELISA on coated receptor-Fc fusion proteins, one antibody concentration (not given on the sheet)
T2 construct: range 30-212; also called moR1; not shown: Fc part from vector pSecTagL1-Fc
T2 sequence (looked up): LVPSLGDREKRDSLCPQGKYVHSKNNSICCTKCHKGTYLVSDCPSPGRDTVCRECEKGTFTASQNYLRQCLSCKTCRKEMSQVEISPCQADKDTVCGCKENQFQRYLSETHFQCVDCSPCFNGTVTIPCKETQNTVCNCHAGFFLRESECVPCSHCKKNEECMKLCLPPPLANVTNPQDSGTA
Protocol: (§2) FIG. 12. Species selectivity of scFv13.7 derivatives. […] Presented are mean and SD of two individual experiments.
(§3) Microtiter plates were coated with 100 µl of the indicated protein (1 µg/ml in PBS, see Table 3.3) and incubated at 4° C. over night. The residual binding sites were blocked with 2% MPBS (skim milk in PBS, 200 µl per well) at room temperature for 2 hours and subsequently washed twice with PBS. 100 µl of the samples diluted in 2% MPBS were incubated at room temperature for 1 hour prior to the last incubation step with 100 µl of the HRP conjugated detection antibodies in 2% MPBS. In the case of competition experiments, both analyzed protein samples were prepared individually (either titrated or diluted to a single concentration) and mixed before they were applied to the plate. Bound protein was detected with 100 µl TMB substrate solution, the HRP-reaction was stopped by the addition of 50 µl 1 M H2SO4 and the absorption at the wavelength of 450 nm was measured using the Infinite microtiter plate reader (TECAN, Maennedorf, Switzerland). Between each incubation step and in advance of the detection, the plates were washed three times with PBST and twice with PBS.

[4] = biological target: T3, human TNFR2-Fc fusion protein (human, UniProt P20333 23-257); assay: as above
T3 construct: whole entry named; also called huTNFR2
T3 sequence (looked up): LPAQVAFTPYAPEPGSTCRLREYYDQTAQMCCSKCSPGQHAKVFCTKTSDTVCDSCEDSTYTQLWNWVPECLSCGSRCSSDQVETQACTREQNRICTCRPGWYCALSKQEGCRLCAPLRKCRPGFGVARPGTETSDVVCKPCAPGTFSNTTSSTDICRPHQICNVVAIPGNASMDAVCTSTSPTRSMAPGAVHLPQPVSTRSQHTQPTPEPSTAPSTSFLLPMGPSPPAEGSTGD
Protocol: as §2, §3

[5] = biological target: T1, human TNFR1-Fc fusion protein; assay: QCM, human TNFR1-Fc, moderate receptor density (86 Hz), biphasic fit, KD1 (low-affinity part)
Protocol: as §1

[6] = biological target: T4, human TNFR1 on cells (HT1080, HeLa, Kym-1) (human, UniProt P19438 30-455); assay: cell-based or functional assay
T4 sequence (looked up): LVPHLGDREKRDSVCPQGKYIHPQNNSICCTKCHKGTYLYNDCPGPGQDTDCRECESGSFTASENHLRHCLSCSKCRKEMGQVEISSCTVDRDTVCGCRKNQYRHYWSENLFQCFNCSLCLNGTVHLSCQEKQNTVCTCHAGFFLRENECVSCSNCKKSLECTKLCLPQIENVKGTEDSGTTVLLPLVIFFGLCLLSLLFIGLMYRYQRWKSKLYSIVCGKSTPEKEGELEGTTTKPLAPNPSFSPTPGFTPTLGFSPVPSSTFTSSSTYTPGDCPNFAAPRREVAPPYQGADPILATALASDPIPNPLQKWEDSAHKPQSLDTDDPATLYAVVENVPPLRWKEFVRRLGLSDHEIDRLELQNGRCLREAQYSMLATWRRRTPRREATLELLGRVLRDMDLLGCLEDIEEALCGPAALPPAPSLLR

[7] = biological target: T1, human TNFR1-Fc fusion protein; assay: QCM, human TNFR1-Fc, moderate receptor density (86 Hz), biphasic fit, kon2 (high-affinity part)
Protocol: as §1

[8] = biological target: T1, human TNFR1-Fc fusion protein; assay: QCM, human TNFR1-Fc, moderate receptor density (86 Hz), biphasic fit, KD2 (high-affinity part)
Protocol: as §1

[9] = biological target: T1, human TNFR1-Fc fusion protein; assay: QCM, human TNFR1-Fc immobilised, low receptor density (48 Hz)
Protocol: as §1

fold weaker binding (higher EC50) compared with IgG13.7 [1]: 1.4 fold | koff [2]: 0.000407 s⁻¹ | binding result [3]: no binding | binding result [4]: no binding | Kd [5]: 78 nM | IC50, IL-6 (nM); inhibition of the response of HeLa cells to 0.1 nM TNF [6]: 179 nM | IC50, IL-8 (nM); inhibition of the response of HT1080 cells to 0.1 nM TNF [6]: 118 nM | IL-6 release (pg/ml), HeLa cells [6]: 231 pg/mL | IL-8 release (pg/ml), HT1080 cells [6]: 240 pg/mL | kon [7]: 1.06e+06 M⁻¹ s⁻¹ | Kd [8]: 0.38 nM | Factor (KD low density chip, ATROSAB against H398) [9]: 2.8 fold | Factor (koff low density chip, ATROSAB against H398) [9]: 7.6 fold | Kd [9]: 4.5 nM | fold faster kon than H398 [9]: 2.6 fold | koff [9]: 0.0047 s⁻¹
B1: ATROSAB (antibody, IgG1, V domains shown)
VH: QVQLVQSGAEVKKPGSSVKVSCKASGYTFTDFYINWVRQAPGQGLEWIGEIYPYSGHAYYNEKFKARVTITADKSTSTAYMELSSLRSEDTAVYYCARWDFLDYWGQGTTVTVSS
VL: DIVMTQSPLSLPVTPGEPASISCRSSQSLLHSNGNTYLHWYLQKPGQSPQLLIYTVSNRFSGVPDRFSGSGSGTDFTLKISRVEAEDVGVYYCSQSTHVPYTFGGGTKVEIKR
notes: Humanized full-length IgG1 with a modified Fc region deficient in mediating effector functions (made according to WO2012035141); also called full length IgG ATROSAB
IC50, Cytotox (nM); inhibition of Kym-1 cell death by 0.01 nM TNF [6]: 24 nM
